Values belong to the molecule of their own block, whether it stands above or below them. Non-standard residues stand in square brackets, D forms with d.
Key:
[1] = target: T1, protease that generates mature IL-1β from the precursor polypeptide (Homo sapiens, UniProt P29466); settings: Black et al., FEBS Lett., 247:386–90 (1989); cited from earlier work
T1 construct: host or cells: partially purified (about 500-fold) from THP-1 cell lysates, per Black et al., FEBS Lett. 247:386-90 (1989)
T1 sequence (P29466 120-297 limits assumed): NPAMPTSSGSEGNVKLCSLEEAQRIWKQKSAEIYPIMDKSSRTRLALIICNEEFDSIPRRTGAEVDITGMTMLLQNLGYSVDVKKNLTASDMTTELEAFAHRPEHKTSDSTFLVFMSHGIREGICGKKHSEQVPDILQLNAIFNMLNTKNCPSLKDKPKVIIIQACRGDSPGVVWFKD
T1 sequence (P29466 317-404 limits assumed): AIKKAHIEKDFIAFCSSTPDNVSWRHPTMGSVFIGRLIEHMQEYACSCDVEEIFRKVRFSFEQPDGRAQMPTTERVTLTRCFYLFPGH

[2] = target: T2, purified human IL-1β pro enzyme (Homo sapiens, UniProt P29466); assay: Cleavage of synthetic peptide substrates by purified human IL-1β pro enzyme (RP-HPLC); format: biochemical; design: key to Reactivity Relative To Peptide 1: reactivity relative to peptide Ala112–Ser121 of precursor IL-1β; settings: for ability of IL-1β pro to cleave the substrate peptide (in words): Tables 1 and 2
T2 construct: beginning with amino acid 120; Based upon a molecular weight analysis, the approximate C-terminus of mature IL-1β pro is about amino acid 297; endogenous in cells; host or cells: THP-1 cells (ATCC), stimulated, lysed, six-step chromatography
T2 sequence (P29466 120-297): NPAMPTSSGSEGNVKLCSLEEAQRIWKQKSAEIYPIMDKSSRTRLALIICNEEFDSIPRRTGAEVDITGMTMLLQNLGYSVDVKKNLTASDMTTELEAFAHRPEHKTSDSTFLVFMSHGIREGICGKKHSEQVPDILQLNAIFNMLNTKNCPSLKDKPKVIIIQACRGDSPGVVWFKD
T2 sequence (P29466 317-404): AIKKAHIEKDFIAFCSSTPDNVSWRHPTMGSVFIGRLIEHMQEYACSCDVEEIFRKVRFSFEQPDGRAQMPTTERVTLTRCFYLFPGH
Experimental: This example illustrates the range of substrate specificity of purified human IL-1β pro enzyme to cleave a group of amino acid sequences. A variety of peptide substrates were prepared featuring changes in individual amino acids in the region corresponding to the cleavage site in human precursor IL-1β (His 115 to Pro 118). The reactivity of the peptide substrates was expressed relative to the peptide corresponding to Ala 112 to Ser 121 of the precursor IL-1β sequence.
Peptide solutions of standard concentration were prepared by dissolving about 2–3 mg of peptide substrate in water, loading the solution onto a Waters Sep-Pak C18 cartridge and washing three times with 5 ml of water. The peptide substrates were eluted with acetonitrile and then evaporated to dryness. Each substrate was standardized to 1 mM by amino acid analysis prior to use.
Purified human IL-1β pro enzyme (10 μl), peptide substrate in water (10 μl), and 10 mM Tris buffer, pH 8.0 containing 25% v/v glycerol (10 μl) were mixed and the mixtures were incubated at 37° C. for four hours. The reaction was quenched with by adding 1 M glycine/HCl buffer pH 2.0 (10 μl). The samples were then analyzed using RP-HPLC with a Vydac C18 column (0.46 cm×25 cm) and eluting with a linear gradient from 100% solvent A to 70% solvent A/30% solvent B over 30 minutes at a flow rate of 1 ml/min. The effluent was monitored at 280 nm absorbing product.
This example illustrates the effect of substrate peptide length on the ability of human IL-1β pro enzyme to cleave peptide substrates. […] Five substrate peptides were made that correspond to the amino acid sequence of the IL-1β pro cleavage site of human precursor IL-1.

[3] = target: T3, IL-1β pro (Homo sapiens, UniProt P29466); assay: Inhibition of IL-1β pro catalyzed degradation of preIL-1β, in vitro assay with Western blot; format: biochemical
T3 construct: beginning with amino acid 120; Based upon a molecular weight analysis, the approximate C-terminus of mature IL-1β pro is about amino acid 297
T3 sequence (P29466 120-297): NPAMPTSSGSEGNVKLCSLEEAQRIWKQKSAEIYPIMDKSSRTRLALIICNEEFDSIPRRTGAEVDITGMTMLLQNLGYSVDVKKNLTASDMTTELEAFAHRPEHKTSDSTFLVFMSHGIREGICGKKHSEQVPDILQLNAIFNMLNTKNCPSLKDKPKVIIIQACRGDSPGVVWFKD
T3 sequence (P29466 317-404): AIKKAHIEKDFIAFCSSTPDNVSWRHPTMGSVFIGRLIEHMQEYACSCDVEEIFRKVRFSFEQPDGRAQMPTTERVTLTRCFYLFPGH
Experimental: Products were subjected to SDS-PAGE, transferred to nitrocellulose, and probed with an antibody raised against the COOH terminus of mature IL-1β. Lane 3, preIL-1β incubated with 25 μM of inhibitor; lane 4, preIL-1β incubated with 10 μM of inhibitor; lane 5, preIL-1β incubated with 5 μM inhibitor, lane 6, preIL-1β incubated with 1 μM inhibitor.
Boc-Asp-CH2F was tested for its ability to inhibit IL-1β pro catalyzed degradation of preIL-1β using an in vitro assay method. Black, et al., J. Biol. Chem., 263(19): 9437 (1988). Boc-Asp-CH2F was prepared in accordance with the method of example of 1A.
5 μl of preIL-1β (about 50 μg/ml in PBS) was mixed with 10 μl of purified IL-1β pro (15–75 μg/ml in PBS) and incubated at 37° C. for 30 minutes. The incubation was terminated by placing the samples on Dry Ice or by the addition of SDS sample buffer. PMSF was then added to a concentration of 1 mM, and the samples were dialyzed against water. After dialysis, the samples were concentrated to dryness in a Speed-Vac concentrator and dissolved in SDS sample buffer.
SDS-PAGE was carried out with 12% polyacrylamide gels. The gels were placed in transfer buffer (0.192 M glycine. 0.025 M Tris-HCl (pH 8.3), 20% v/v methanol), and protein was then electrophoresed onto nitrocellulos (Sartorius) in a Hoeffer transfer apparatus (1 h at maximum voltage). […]

[4] = target: Peptide 2, Ala-Tyr-Val-His-Asn-Ala-Pro-Val-Arg-Ser
[5] = target: Peptide 4, Ala-Tyr-Val-His-(D-Asp)-Ala-Pro-Val-Arg-Ser
[6] = target: Peptide 3, Ala-Tyr-Val-His-Glu-Ala-Pro-Val-Arg-Ser
[7] = target: Peptide 6, Ala-Tyr-Val-His-Asp-Val-Pro-Val-Arg-Ser
[8] = target: Peptide 7, Ala-Tyr-Val-Phe-Asp-Ala-Pro-Val-Arg-Ser
[9] = target: Peptide 1, Ala-Tyr-Val-His-Asp-Ala-Pro-Val-Arg-Ser (human)
[10] = target: Peptide 5, Ala-Tyr-Val-His-Asp-Gly-Pro-Val-Arg-Ser
[11] = target: Peptide 8, Ala-Tyr-Val-His-Asp-Ala-Ala-Val-Arg-Ser
[12] = target: Peptide 9, Glu-Ala-Tyr-Val-His-Asp-Ala-Pro (human)
[13] = target: T4, Peptide 10, Ac-Tyr-Val-His-Asp-Ala-Pro-Val-Arg-NH2 (human)
T4 sequence (peptide, N-terminal acetyl (Ac-); C-terminal amide (-NH2)): YVHDAPVR

[14] = Table 2, effect of substrate peptide length, conducted as in Example 1
[15] = Table 1, changes at cleavage site, 37° C., four hours, extent of peptide cleavage by RP-HPLC peak area at 280 nm

Molecule: CCN1C(=O)C=CC1=O [N-ethylmaleimide]
inhibition of the protease (in words) [1]: inhibited

Molecule: CC(C)(C)OC(=O)N[C@@H](CC(=O)O)C(=O)CF [Boc-Asp-CH2F]
inhibition of generation of mature IL-1β from preIL-1β ([3]; inhibitor concentration 1 μM): partially inhibits | inhibition of generation of mature IL-1β from preIL-1β ([3]; inhibitor concentration 5 μM): completely inhibits

Molecule: Ala-Tyr-Val-His-Asn-Ala-Pro-Val-Arg-Ser (Seq. I.D. No. 14) (AYVHNAPVRS) [Peptide 2, substrate peptide, Asp changed to asparagine]
Reactivity Relative To Peptide 1 [2, 15]: <0.01 | ability of IL-1β pro to cleave the substrate peptide (in words) [2]: profound effect on the ability of IL-1β pro to cleave the substrate

Molecule: O=C(O)CI [iodoacetate]
inhibition of the protease (in words) [1]: inhibited

Molecule: Ala-Tyr-Val-His-Asp-Ala-Ala-Val-Arg-Ser (Seq. I.D. No. 20) (AYVHDAAVRS) [Peptide 8, substrate peptide, P2′ proline changed to alanine]
Reactivity Relative To Peptide 1 [2, 15]: 0.47 | ability of IL-1β pro to cleave the substrate peptide (in words) [2]: still cleaved by human IL-1β pro but only half as efficiently

Molecule: Glu-Ala-Tyr-Val-His-Asp-Ala-Pro- (Seq. I.D. No. 21) (EAYVHDAPVRSL) [Peptide 9, substrate peptide of the precursor IL-1β cleavage site]
Reactivity Relative To Peptide 1 [2, 14]: 0.74

Molecule: His-Asp-Ala-Pro- (Seq. I.D. No. 24) (HDAP) [Peptide 12, four amino acid substrate peptide]
Reactivity Relative To Peptide 1 [2, 14]: Not cleaved

Molecule: Ala-Tyr-Val-His-Asp-Gly-Pro-Val-Arg-Ser (Seq. I.D. No. 17) (AYVHDGPVRS) [Peptide 5, substrate peptide, P1′ alanine replaced with glycine]
times more reactive than peptide 1 [2]: 3.4 times | Reactivity Relative To Peptide 1 [2, 15]: 3.40

Further lines, with some results ahead:

Reactivity Relative To Peptide 1 [2, 14]: 2.40 | ability of IL-1β pro to cleave the substrate peptide (in words) [2]: cleaved most efficiently
Molecule: Tyr-Val-His-Asp-Ala-Pro-Val-Arg- (Seq. I.D. No. 22) (Ac-YVHDAPVR-NH2) [Peptide 10, eight amino acid substrate peptide]

Reactivity Relative To Peptide 1 [2, 15]: <0.05
Molecule: Ala-Tyr-Val-His-Glu-Ala-Pro-Val-Arg-Ser (Seq. I.D. No. 15) (AYVHEAPVRS) [Peptide 3, substrate peptide, Asp changed to glutamic acid]
ability of IL-1β pro to cleave the substrate peptide (in words) [2]: profound effect on the ability of IL-1β pro to cleave the substrate

Reactivity Relative To Peptide 1 [2, 15]: 0.50 | ability of IL-1β pro to cleave the substrate peptide (in words) [2]: A similar result was obtained
Molecule: Ala-Tyr-Val-Phe-Asp-Ala-Pro-Val-Arg-Ser (Seq. I.D. No. 19) (AYVFDAPVRS) [Peptide 7]

Reactivity Relative To Peptide 1 [2, 15]: <0.05
Molecule: Ala-Tyr-Val-His-Asp-Val-Pro-Val-Arg-Ser (Seq. I.D. No. 18) (AYVHDVPVRS) [Peptide 6, substrate peptide, P1′ alanine changed to valine]
ability of IL-1β pro to cleave the substrate peptide (in words) [2]: effectively prevents proteolytic cleavage

Reactivity Relative To Peptide 1 [2, 14]: Not cleaved
Molecule: Val-His-Asp-Ala-Pro-Val- (Seq. I.D. No. 23) (VHDAPV) [Peptide 11, six amino acid substrate peptide]

Reactivity Relative To Peptide 1 [2, 15]: <0.01
Molecule: Ala-Tyr-Val-His-(D-Asp)-Ala-Pro-Val-Arg-Ser (Seq. I.D. No. 16) (Ac-AYVH[dD]APVRS-NH2) [Peptide 4, substrate peptide, Asp changed to D-aspartate]
ability of IL-1β pro to cleave the substrate peptide (in words) [2]: profound effect on the ability of IL-1β pro to cleave the substrate

Reactivity Relative To Peptide 1 (peptide cleavage, RP-HPLC) (relative to Peptide 1) [4]: < 0.01 | Reactivity Relative To Peptide 1 (peptide cleavage, RP-HPLC) (relative to Peptide 1) [5]: < 0.01 | Reactivity Relative To Peptide 1 (peptide cleavage, RP-HPLC) (relative to Peptide 1) [6]: < 0.05 | Reactivity Relative To Peptide 1 (peptide cleavage, RP-HPLC) (relative to Peptide 1) [7]: < 0.05 | Reactivity Relative To Peptide 1 (peptide cleavage, RP-HPLC) (relative to Peptide 1) [8]: 0.5 | Reactivity Relative To Peptide 1 (peptide cleavage, RP-HPLC) (relative to Peptide 1) [9]: 1 | Reactivity Relative To Peptide 1 (peptide cleavage, RP-HPLC) (relative to Peptide 1) [10]: 3.4 | Reactivity Relative To Peptide 1 (peptide cleavage, RP-HPLC) (relative to Peptide 1) [11]: 0.47 | Reactivity Relative To Peptide 1 (peptide cleavage, RP-HPLC) (relative to Peptide 1) [12]: 0.74 | Reactivity Relative To Peptide 1 (peptide cleavage, RP-HPLC) (relative to Peptide 1) [13]: 2.4
B1: purified human IL-1β pro enzyme (interleukin 1β protease), purified from THP-1 cells (enzyme)
chain: NPAMPTSSGSEGNVKLCSLEEAQRIWKQKSAEIYPIMDKSSRTRLALIICNEEFDSIPRRTGAEVDITGMTMLLQNLGYSVDVKKNLTASDMTTELEAFAHRPEHKTSDSTFLVFMSHGIREGICGKKHSEQVPDILQLNAIFNMLNTKNCPSLKDKPKVIIIQACRGDSPGVVWFKD
